The source of these data is US20080044413A1 (published 2008).

One assay deals with T1, cynomolgus EphA2 (cynomolgus, UniProt Q1KL86 24-976).
T1 construct: whole, on cells; also called cynomolgus EphA2 expressed on transfected CHO cells
In words: flow cytometry on cynomolgus EphA2 transfected CHO cells, antibody 10 µg/ml, AlexaFluor 488 anti-mouse or anti-human IgG (H+L). How it is done:
Subconfluent monolayers of SW480 colon carcinoma or cynomolgus EphA2 transfected CHO cells were quickly trypsinized, washed, counted, plated into 96-well round bottom plates, and stained with 10 μg/ml of a negative control antibody (R347), the anti-human EphA2 murine antibody, EA2 (Coffman 2003), or humanized antibodies, 3F2 and 4H5. Cells were resuspended in AlexaFluor 488 anti-mouse or anti-human IgG H+L (Invitrogen) and then analyzed by flow cytometry using a FACSCalibur (Becton Dickinson).

Assay [1] concerns the target T2, human EphA2 (human, UniProt P29317 24-976).
T2 construct: whole, on cells; also called EphA2 receptor
In words: flow cytometry on A549 cells, antibody 10 µg/ml, PE anti-mouse Fc gamma; control: irrelevant antibody of the same isotype [A]. The procedure:
FIGS. 10A-10B: Flow cytometric binding analysis of anti-EphA2 parental antibodies. EphA2 expressing A549 cells (human lung carcinoma cell line) (A), and MDA-MB-231 cells (human breast cancer) (B) were used. Cells (200,000) were incubated with 10 μg/ml of the respective antibody for 30 min on ice. The cells were subsequently washed twice in PBS. The binding of the primary antibody was detected via an phycoerythrin-conjugated murine Fc-gamma specific antibody (Dianova, order no. 115-116-071) diluted 1:100 in 50 μl PBS with 2% FCS. As negative control, an irrelevant antibody with the same isotype was used (thin line). Cells were analyzed by flow cytometry on a FACS-Calibur (Becton Dickinson, Heidelberg). […] The binding capabilities of the three different antibodies are shown in a histogram overlay (4th peak from left=B322 antibody; 3rd peak from left=EA2 antibody; 2nd peak from left=EA5 antibody; far left peak—control).
A flow cytometric analysis was performed to estimate the binding strength of the anti-EphA2 parental monoclonal antibodies […], EA2 and EA5 (FIG. 10). […] The binding of the primary antibody was detected via an phycoerythrin conjugated murine Fc-gamma specific antibody (Dianova, order no. 115-116-071) diluted 1:100 in […] PBS with 2% FCS. […] Cells were analyzed by flow cytometry on a FACS-Calibur (Becton Dickinson, Heidelberg).
In general terms: In flow cytometry, cells or beads pass a laser one at a time.

Assay [2] has as its target T3, Human EphA2-Fc fusion protein (human, UniProt P29317 24-537).
T3 construct: extracellular domain; Expressed in HEK 293 cells; Biotinylated in the capture ELISAs; also called soluble EphA2 Fc fusion protein; not shown: Fc portion of a human IgG1
Put plainly: SPR (Biacore 3000), soluble IgG on immobilized EphA2-Fc. (In general: In SPR one partner is held on a chip, and binding of the other changes the refractive index at the surface.)

Assay [3] addresses T2, human EphA2. Put plainly: immunofluorescence microscopy of fixed monolayers of MCF-10A and MDA-MB-231 cells. The procedure:
Monolayers of MCF-10A or MDA-MB-231 cells were cultured atop glass coverslips for at least 24 h at 37° C. before staining. Cell monolayers were fixed in 4% paraformaldehyde (2 min, 25° C.) before incubation with primary antibody (clone G5 (negative control), EA5, EA2, 3F2, or 4H5) for 30 min followed by subsequent staining with AlexaFluor 488-conjugated goat anti-mouse IgG or AlexaFluor 488-conjugated goat anti-human IgG (The Jackson Laboratory). Cells were fixed for analyses by immunofluorescence microscopy. […] The amino acid sequence of the VL and VH domains of the G5 antibody are depicted in FIG. 42.

The target in assay [4] is T3, Human EphA2-Fc fusion protein. In words: SPR (BIAcore 3000), KD against that of 4H5 scFv. The procedure: (§1) 2A4, 2E7 and 12E2 as well as parental EA2 scFv and humanized 4H5 scFv were induced for expression in E. coli in a 1 L culture volume. The supernatants containing soluble, secreted scFv fragments were spun to remove cellular debris then passed over an anti-FLAG column (Sigma) to purify and isolate the variant proteins. The purified affinity optimized variants were analyzed by surface plasmon resonance detection using a BIAcore 3000 instrument (Pharmacia Biosensor, Uppsala, Sweden). […] For affinity measurement results, see the table in section 6.6, infra.

Assay [5] shares this target. Put plainly: SPR (BIAcore 3000), purified monomeric scFv, human EphA2. How it is done: as §1

T1 sequence (Q1KL86 24-976): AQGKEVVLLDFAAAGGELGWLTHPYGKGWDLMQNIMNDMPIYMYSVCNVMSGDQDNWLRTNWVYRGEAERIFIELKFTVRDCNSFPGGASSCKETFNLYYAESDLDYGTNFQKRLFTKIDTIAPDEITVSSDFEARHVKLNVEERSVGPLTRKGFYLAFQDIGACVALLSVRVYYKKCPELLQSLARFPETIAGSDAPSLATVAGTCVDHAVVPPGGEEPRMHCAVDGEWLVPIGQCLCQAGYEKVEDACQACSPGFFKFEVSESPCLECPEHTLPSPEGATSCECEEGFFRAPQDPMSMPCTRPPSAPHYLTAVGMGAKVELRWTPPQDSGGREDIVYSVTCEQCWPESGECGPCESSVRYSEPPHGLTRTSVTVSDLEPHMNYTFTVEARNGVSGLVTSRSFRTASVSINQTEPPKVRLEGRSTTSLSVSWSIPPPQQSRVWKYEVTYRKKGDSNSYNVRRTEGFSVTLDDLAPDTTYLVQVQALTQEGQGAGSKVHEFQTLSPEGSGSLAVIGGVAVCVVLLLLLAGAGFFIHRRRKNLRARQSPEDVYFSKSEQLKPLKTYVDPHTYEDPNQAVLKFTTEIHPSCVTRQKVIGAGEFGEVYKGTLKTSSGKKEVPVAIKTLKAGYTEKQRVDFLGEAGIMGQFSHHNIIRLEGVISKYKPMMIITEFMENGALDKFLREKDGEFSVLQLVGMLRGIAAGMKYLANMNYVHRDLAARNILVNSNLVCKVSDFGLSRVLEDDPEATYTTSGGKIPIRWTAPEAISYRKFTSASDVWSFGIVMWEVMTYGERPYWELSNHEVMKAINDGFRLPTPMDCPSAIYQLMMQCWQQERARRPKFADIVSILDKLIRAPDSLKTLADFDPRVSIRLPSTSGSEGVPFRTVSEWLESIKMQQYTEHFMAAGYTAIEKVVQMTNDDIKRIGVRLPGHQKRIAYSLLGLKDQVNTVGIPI

B1: anti-EphA2 antibody EA2 (antibody, V domains shown)
VH: DVKLVESGGGLVKPGGSLKLSCAASGFTFSSYTMSWVRQTPEKRLEWVATISSGGTYTYYPDSVKGRFTISRDNAKNTLYLQMSSLKSEDTAMYYCTREAIFTYWGQGTLVTVSA
VL: DIKMTQSPSSMYASLGERVTITCKASQDINNYLSWFQQKPGKSPKTLIYRANRLVDGVPSRFSGSGSGQDYSLTISSLEYEDMGIYYCLKYDEFPYTFGGGTKLEIK
notes: Murine monoclonal antibody; Hybridoma ATCC PTA-4380; also called mAb EA2
With B1, the binding result in the assay with cynomolgus EphA2 and in the assay with human EphA2 [1] was “binds” throughout.

B2: anti-EphA2 antibody EA5 (antibody, V domains shown)
VH: EVQLQQSGPELVKTGASVKISCKASGYSFTGYYMHWVKQSHGKSLEWIGYISCYNGVTSYNQKFKGKATFTVDTSSSTAYMQFNSLTSEDSAVYYCARSHAMDYWGQGTSVTVSS
VL: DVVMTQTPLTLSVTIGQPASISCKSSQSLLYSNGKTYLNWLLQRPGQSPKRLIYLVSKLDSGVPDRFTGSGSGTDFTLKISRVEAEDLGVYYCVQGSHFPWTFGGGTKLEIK
notes: Murine monoclonal antibody; Hybridoma ATCC PTA-4381; also called mAb EA5
On to B2, for which the binding result in the assay with human EphA2 [1] is reported as “binds”.

B3: Affinity optimized 3F2 (antibody, human IgG1, V domains shown)
VH: EVQLVESGGGVVRPGGSLRLSCAASGFTVSDYSMNWVRQAPGKGLEWIGFIRNKANAYTTEYSASVKGRFTISRDDSKNTLYLQMNSLKTEDTAVYYCTTYPRYHAMDSWGQGTMVTVSS
VL: AIQLTQSPSSLSASVGDRVTITCRASQSISNNLHWYLQKPGQSPQLLIYYGFQSISGVPSRFSGSGSGTDFTLTISSLQPEDFATYYCQQANSWPLTFGGGTKLEIK
notes: human IgG1 with human kappa chain
On to B3, for which, in assay [2], the Kd is 0.671 nM, the off-rate (koff) turned out to be 0.000127 s⁻¹ and the kon stood at 189000 M⁻¹ s⁻¹. Further, the binding result with cynomolgus EphA2 was “binds”.

B4: G5 (antibody, V domains shown)
VH: QMQLVQSGPEVKKPGTSVKVSCKASGFTFTDYSMNWVRQARGQRLEWIGFIRNKANDYTTEYSASVKGRVTITRDMSTSTAYMELSSLRSEDTAVYYCARYPRYHAMDSWGQGTSVTVSS
VL: DIQMTQSPSSLSASVGDRVTITCRASQSISNNLHWYQQKPGKAPKLLIKYVFQSISGVPSRFSGSGSGTDFTFTISSLQPEDFATYYCQQSNSWPLTFGGGTKVEIK
notes: also called clone G5; anti-EphA2 antibody G5
In the case of B4, the binding result with human EphA2 [3] is reported as “binds”.

B5: VH VL 2A4 scFv (scFv)
scFv: QVQLLESGGGLVQPGGSLRLSCAASGFTFSSYTMSWVRQAPGQALEWMGTISSRGTYTYYPDSVKGRFTISRDNAKNSLYLQMNSLRAEDTAVYYCAREAIFTHWGRGTLVTVSSGGGGSGGGGSGGGGSDIQLTQSPSSLSASVGDRVTITCKASQDINNYHSWYQQKPGQAPRLLIYRANRLVDGVPDRFSGSGYGTDFTLTINNIESEDAAYYFCLKYNVFPYTFGQGTKVEIK
notes: FLAG and His tags as for 4H5 scFv
For the molecule B5, the “Fold Difference (vs 4H5)” value in assay [4] came out at 32 fold. In assay [5], binding was put at a Kd of 5.7 nM, the koff amounted to 0.0037 s⁻¹ and the kon amounted to 650000 M⁻¹ s⁻¹.

B6: VH VL 2E7 scFv (scFv)
scFv: QVQLLESGGGLVQPGGSLRLSCAASGFTFSSYTMSWVRQAPGQALEWMGTISSRGTYTYYPDSVKGRFTISRDNAKNSLYLQMNSLRAEDTAVYYCAREAIFTHWGRGTLVTVSSGGGGSGGGGSGGGGSDIQLTQSPSSLSASVGDRVTITCKASQDINNYGSWYQQKPGQAPRLLIYRANRLVDGVPDRFSGSGYGTDFTLTINNIESEDAAYYFCLKYNRFPYTFGQGTKVEIK
notes: as for B5
For B6, in assay [4], the “Fold Difference (vs 4H5)” value amounted to 25 fold. Further, in assay [5], the Kd is 7.3 nM, the koff came to 0.0041 s⁻¹ and the kon is 560000 M⁻¹ s⁻¹.

B7: 4H5 VH-VL scFv humanized clone (scFv)
scFv: QVQLLESGGGLVQPGGSLRLSCAASGFTFSSYTMSWVRQAPGQALEWMGTISSGGTYTYYPDSVKGRFTISRDNAKNSLYLQMNSLRAEDTAVYYCAREAIFTYWGRGTLVTVSSGGGGSGGGGSGGGGSDIQLTQSPSSLSASVGDRVTITCKASQDINNYLSWYQQKPGQAPRLLIYRANRLVDGVPDRFSGSGYGTDFTLTINNIESEDAAYYFCLKYDVFPYTFGQGTKVEIK
notes: Expressed with a C-terminal FLAG tag and His tag; also called 4H5 scFv; scFv 4H5
Regarding B7, the “Fold Difference (vs 4H5)” value in assay [4] came to 1 fold. In assay [5], this molecule displayed an equilibrium dissociation constant (Kd) of 180 nM, a koff of 0.018 s⁻¹ and a kon of 100000 M⁻¹ s⁻¹.

B8: VH VL 12E2 scFv (scFv)
scFv: QVQLLESGGGLVQPGGSLRLSCAASGFTFSSYTMSWVRQAPGQALEWMGTISSRGTYTYYPDSVKGRFTISRDNAKNSLYLQMNSLRAEDTAVYYCAREAIFTYWGRGTLVTVSSGGGGSGGGGSGGGGSDIQLTQSPSSLSASVGDRVTITCKASQDINNYLSWYQQKPGQAPRLLIYRANRLFDGVPDRFSGSGYGTDFTLTINNIESEDAAYYFCLKYDRFPYTFGQGTKVEIK
notes: as for B5
As to B8, the “Fold Difference (vs 4H5)” value in assay [4] was 23 fold. In assay [5], this molecule displayed a Kd of 7.8 nM, a koff of 0.0041 s⁻¹ and a kon of 520000 M⁻¹ s⁻¹.

B9: parental anti-EphA2 scFv EA2 (scFv)
scFv: DVKLVESGGGLVKPGGSLKLSCAASGFTFSSYTMSWVRQTPEKRLEWVATISSGGTYTYYPDSVKGRFTISRDNAKNTLYLQMSSLKSEDTAMYYCTREAIFTYWGQGTLVTVSAGGGGSGGGGSGGGGSDIKMTQSPSSMYASLGERVTITCKASQDINNYLSWFQQKPGKSPKTLIYRANRLVDGVPSRFSGSGSGQDYSLTISSLEYEDMGIYYCLKYDEFPYTFGGGTKLEIK
notes: The murine EA2 variable regions were cloned in the same manner as the 4H5 scFv (VH, linker, VL, FLAG, His); also called EA2 scFv; not shown: C-terminal FLAG tag and His tag
As for B9, in assay [4], the “Fold Difference (vs 4H5)” value was -4.8 fold. In assay [5], binding was put at a Kd of 870 nM, the koff came to 0.03 s⁻¹ and the on-rate constant (kon) is 34000 M⁻¹ s⁻¹.

B10: Chimaeric B 233 (antibody, V domains shown)
VH: EVKLVESGGGLVQPGGSLSLSCAASGFTFTDYSMNWVRQPPGKALEWLGFIRNKANDYTTEYSASVKGRFTISRDNSQSILYLQMNALRAEDSATYYCVRYPRYHAMDSWGQGTSVTVSS
VL: DIVLTQSPATLSVTPGDSVNLSCRASQSISNNLHWYQQKSHESPRLLIKYVFQSISGIPSRFSGSGSGTDFTLSINSVETEDFGMYFCQQSNSWPLTFGAGTKLELK
notes: Soluble IgG with the B233 variable regions; also called chimaeric mAb B233; chimeric B233
In assay [2], B10 registered a Kd of 0.3 nM, a koff of 8e-05 s⁻¹ and an on-rate constant (kon) of 240000 M⁻¹ s⁻¹.

In general, Kd refers to the constant that tells how readily two partners part at equilibrium. A higher Kd goes with weaker binding. As usually defined, the koff is a measure of how fast the partners let go of each other. A low value points to slow dissociation. What is called kon is a measure of how fast the partners come together. Low readings indicate slow association, high ones fast association.
